The labels stand for the following.
B1: Rpn8 (natural protein, S. cerevisiae, UniProt Q08723 1-338, looked up)
chain: MSLQHEKVTIAPLVLLSALDHYERTQTKENKRCVGVILGDANSSTIRVTNSFALPFEEDEKNSDVWFLDHNYIENMNEMCKKINAKEKLIGWYHSGPKLRASDLKINELFKKYTQNNPLLLIVDVKQQGVGLPTDAYVAIEQVKDDGTSTEKTFLHLPCTIEAEEAEEIGVEHLLRDVRDQAAGGLSIRLTNQLKSLKGLQSKLKDVVEYLDKVINKELPINHTILGKLQDVFNLLPNLGTPDDDEIDVENHDRINISNNLQKALTVKTNDELMVIYISNLVRSIIAFDDLIENKIQNKKIQEQRVKDKQSKVSDDSESESGDKEATAPLIQRKNKKN
notes: Rpn8, subunit of the 19S proteasome lid, S. cerevisiae; source: endogenous, S. cerevisiae strain RJD2909; in lysate, then co-purified with Rpn11^H12 as the 19S lid (Ni-NTA, Sephacryl S-400 gel filtration)
B3: Rpn5 (natural protein, S. cerevisiae, UniProt Q12250 1-445, looked up)
chain: MSRDAPIKADKDYSQILKEEFPKIDSLAQNDCNSALDQLLVLEKKTRQASDLASSKEVLAKIVDLLASRNKWDDLNEQLTLLSKKHGQLKLSIQYMIQKVMEYLKSSKSLDLNTRISVIETIRVVTENKIFVEVERARVTKDLVEIKKEEGKIDEAADILCELQVETYGSMEMSEKIQFILEQMELSILKGDYSQATVLSRKILKKTFKNPKYESLKLEYYNLLVKISLHKREYLEVAQYLQEIYQTDAIKSDEAKWKPVLSHIVYFLVLSPYGNLQNDLIHKIQNDNNLKKLESQESLVKLFTTNELMRWPIVQKTYEPVLNEDDLAFGGEANKHHWEDLQKRVIEHNLRVISEYYSRITLLRLNELLDLTESQTETYISDLVNQGIIYAKVNRPAKIVNFEKPKNSSQLLNEWSHNVDELLEHIETIGHLITKEEIMHGLQAK
notes: Rpn5, subunit of the 19S proteasome lid, S. cerevisiae; source: endogenous, S. cerevisiae strain RJD2909; in lysate, then co-purified with Rpn11^H12 as the 19S lid (Ni-NTA, Sephacryl S-400 gel filtration)
B4: Rpn11^H12 (natural protein, S. cerevisiae, UniProt P43588 1-306, looked up)
chain: MERLQRLMMNSKVGSADTGRDDTKETVYISSIALLKMLKHGRAGVPMEVMGLMLGEFVDDYTVNVVDVFAMPQSGTGVSVEAVDDVFQAKMMDMLKQTGRDQMVVGWYHSHPGFGCWLSSVDVNTQKSFEQLNSRAVAVVVDPIQSVKGKVVIDAFRLIDTGALINNLEPRQTTSNTGLLNKANIQALIHGLNRHYYSLNIDYHKTAKETKMLMNLHKEQWQSGLKMYDYEEKEESNLAATKSMVKIAEQYSKRIEEEKELTEEELKTRYVGRQDPKKHLSETADETLENNIVSVLTAGVNSVAIK
notes: Rpn11, subunit of the 19S proteasome lid, S. cerevisiae; tagging cassette of plasmid pT2H12 integrated directly before the stop codon of RPN11; also called modified Rpn11; source: S. cerevisiae strain RJD2909 (tag integrated at the chromosomal RPN11 locus); in lysate, then purified as the 19S lid (Ni-NTA, Sephacryl S-400 gel filtration); not shown: His12, C-terminal, kept

One experiment has as its target T1, Rpn9 (S. cerevisiae, UniProt Q04062 1-393).
T1 construct: Rpn9, subunit of the 19S proteasome lid, S. cerevisiae; source: endogenous, S. cerevisiae strain RJD2909; in lysate, then co-purified with Rpn11^H12 as the 19S lid (Ni-NTA, Sephacryl S-400 gel filtration)
T1 sequence (looked up): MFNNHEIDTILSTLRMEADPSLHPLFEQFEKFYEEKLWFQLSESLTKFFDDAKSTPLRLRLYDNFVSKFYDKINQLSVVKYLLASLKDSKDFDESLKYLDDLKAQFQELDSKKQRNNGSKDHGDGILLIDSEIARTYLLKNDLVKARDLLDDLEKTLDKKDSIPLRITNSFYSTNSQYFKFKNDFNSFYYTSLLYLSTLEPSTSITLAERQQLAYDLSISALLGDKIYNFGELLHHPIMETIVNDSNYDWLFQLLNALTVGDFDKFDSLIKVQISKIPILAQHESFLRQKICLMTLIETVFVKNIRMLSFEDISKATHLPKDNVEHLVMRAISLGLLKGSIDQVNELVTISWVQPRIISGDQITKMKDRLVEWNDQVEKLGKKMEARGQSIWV
Description: native MS; 185-kDa subcomplex present in the solution of the purified lid, 1 M ammonium acetate; 34+ charge state isolated, MS/MS with argon at 130 V. The settings on record: both partners purified.

A further experiment addresses T2, Rpn6 (S. cerevisiae, UniProt Q12377 1-434).
T2 construct: Rpn6, subunit of the 19S proteasome lid, S. cerevisiae; Present in substoichiometric amounts: a part of the purified lid complexes lacks Rpn6; also called Rnp6; source: endogenous, S. cerevisiae strain RJD2909; in lysate, then co-purified with Rpn11^H12 as the 19S lid (Ni-NTA, Sephacryl S-400 gel filtration)
T2 sequence (looked up): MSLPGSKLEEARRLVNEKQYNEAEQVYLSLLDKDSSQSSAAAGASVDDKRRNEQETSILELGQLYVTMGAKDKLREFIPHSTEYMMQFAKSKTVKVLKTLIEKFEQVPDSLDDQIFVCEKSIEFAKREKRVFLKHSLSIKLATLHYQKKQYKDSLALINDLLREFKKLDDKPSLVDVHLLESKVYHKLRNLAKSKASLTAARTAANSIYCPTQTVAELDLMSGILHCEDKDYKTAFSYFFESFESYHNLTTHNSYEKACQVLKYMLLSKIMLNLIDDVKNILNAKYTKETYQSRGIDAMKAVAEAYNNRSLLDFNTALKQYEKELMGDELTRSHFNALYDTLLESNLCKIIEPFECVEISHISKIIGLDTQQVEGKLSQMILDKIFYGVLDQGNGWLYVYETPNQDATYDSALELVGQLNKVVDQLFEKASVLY
The experiment is described as above. As to conditions: both partners purified.

Experiment [1] deals with B3. In words: cross-linking; purified lid 4.8 uM, BS3 at a ratio of 1:50, 2 h on ice, 200 mM NaCl, 50 mM HEPES pH 7.5; bands A-F of a Bis-Tris 4-12% denaturing gel digested with trypsin and identified by MALDI-TOF/TOF MS and MS/MS. The settings on record: both partners purified.
Experiment [2] addresses T3, Rpn3 (S. cerevisiae, UniProt P40016 17-523).
T3 construct: Rpn3, subunit of the 19S proteasome lid, S. cerevisiae; from the measured mass the first 16 residues are truncated; source: endogenous, S. cerevisiae strain RJD2909; in lysate, then co-purified with Rpn11^H12 as the 19S lid (Ni-NTA, Sephacryl S-400 gel filtration)
T3 sequence (looked up): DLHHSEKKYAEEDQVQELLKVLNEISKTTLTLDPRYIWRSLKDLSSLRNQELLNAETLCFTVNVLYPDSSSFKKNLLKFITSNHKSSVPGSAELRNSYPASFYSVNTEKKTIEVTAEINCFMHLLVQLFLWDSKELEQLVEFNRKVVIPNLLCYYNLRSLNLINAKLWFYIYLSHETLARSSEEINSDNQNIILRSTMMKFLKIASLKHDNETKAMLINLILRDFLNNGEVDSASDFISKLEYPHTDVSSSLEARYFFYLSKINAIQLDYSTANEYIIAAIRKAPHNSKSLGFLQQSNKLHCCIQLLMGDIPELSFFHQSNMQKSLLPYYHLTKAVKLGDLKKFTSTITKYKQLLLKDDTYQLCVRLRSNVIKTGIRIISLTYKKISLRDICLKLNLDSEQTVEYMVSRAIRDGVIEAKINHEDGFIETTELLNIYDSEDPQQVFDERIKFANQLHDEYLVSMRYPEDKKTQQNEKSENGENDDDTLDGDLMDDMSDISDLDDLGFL
The experiment is described as above. The settings on record: both partners purified.

Experiment [3] has as its target T4, Rpn7 (S. cerevisiae, UniProt Q06103 1-429).
T4 construct: Rpn7, subunit of the 19S proteasome lid, S. cerevisiae; source: endogenous, S. cerevisiae strain RJD2909; in lysate, then co-purified with Rpn11^H12 as the 19S lid (Ni-NTA, Sephacryl S-400 gel filtration)
T4 sequence (looked up): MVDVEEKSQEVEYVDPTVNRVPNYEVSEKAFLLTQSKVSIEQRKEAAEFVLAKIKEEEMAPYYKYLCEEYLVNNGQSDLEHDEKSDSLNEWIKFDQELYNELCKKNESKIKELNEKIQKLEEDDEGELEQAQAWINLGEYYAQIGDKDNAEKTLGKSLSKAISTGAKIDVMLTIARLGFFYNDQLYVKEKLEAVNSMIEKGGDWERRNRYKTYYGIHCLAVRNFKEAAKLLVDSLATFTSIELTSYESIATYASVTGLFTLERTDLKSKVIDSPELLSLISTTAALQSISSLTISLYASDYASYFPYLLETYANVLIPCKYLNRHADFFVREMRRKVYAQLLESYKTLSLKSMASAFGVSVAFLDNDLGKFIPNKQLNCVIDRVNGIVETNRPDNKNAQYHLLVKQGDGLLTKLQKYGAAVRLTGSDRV
Described as above. The settings on record: both partners purified.

The experiment “Rpn11^H12” has as its target B4. In words: affinity purification with mass spectrometry; Rpn11^H12 held on Ni-NTA from yeast lysate, gel filtration; subunits identified by MALDI-TOF/TOF peptide mapping and database search. The settings on record: partners not purified. On the technique in general: In gel filtration, larger molecules generally elute earlier.
The experiment “Rpn8” concerns the target B1. Described as above. The settings on record: partners not purified.
Experiment [4] concerns the target T4, Rpn7. The experiment is described as above. As to conditions: partners not purified.
The target of experiment [5] is T3, Rpn3. Description: native MS; intact endogenous 19S lid purified through Rpn11^H12, buffer exchanged into 1 M ammonium acetate, nano-electrospray on a high-mass Q-TOF; MS/MS of the 47+ charge state at 100 and 120 V. As to conditions: both partners purified.
The target of experiment [6] is B3. The experiment is described as above. The settings on record: both partners purified.

Consider B1, for which the binding result with Rpn9, with Rpn6 and with Rpn5 [1] was “binds” throughout.

B2: Sem1 (natural protein, S. cerevisiae, UniProt O94742 2-89, looked up)
chain: STDVAAAQAQSKIDLTKKKNEEINKKSLEEDDEFEDFPIDTWANGETIKSNAVTQTNIWEENWDDVEVDDDFTNELKAELDRYKRENQ
modifications: N-terminal amino group acetylated (initiator methionine removed)
notes: Sem1, subunit of the 19S proteasome lid, S. cerevisiae (10 kDa); the initiator methionine is removed; source: endogenous, S. cerevisiae strain RJD2909; in lysate, then co-purified with Rpn11^H12 as the 19S lid (Ni-NTA, Sephacryl S-400 gel filtration)
B2: the binding result with Rpn3 [2], with Rpn7 [3] and with Rpn11^H12 was “binds” throughout.
As to B3, in the experiment with Rpn3 [2], the binding result is “binds”.
For B4, the binding result with Rpn8, in the experiment with Rpn7 [4], with Rpn3 [5] and with Rpn5 [6] was “binds” each time.

Values taken from article PMC1523230, “Structural Organization of the 19S Proteasome Lid: Insights from MS of Intact Complexes” (PLoS Biology, 2006).
